B1: N-612-014 (antibody, V domains shown)
VH: EVQLVESGGGLVQPGGSLRLSCAASGFTFSSYAMTWVRQAPGKGLEWVSYISGSGGGTYYADSVKGRFTISRDNSKNTLYLQMNSLRAEDTAVYYCARDRWASGWLAFDVWGQGTLVTVSS
VL: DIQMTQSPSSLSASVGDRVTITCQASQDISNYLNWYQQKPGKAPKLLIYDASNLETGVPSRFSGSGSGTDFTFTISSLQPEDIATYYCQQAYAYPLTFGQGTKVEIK
B2: N-612-017 (antibody, V domains shown)
VH: EVQLVESGGGLVQPGGSLRLSCAASGFTFSSYAMHWVRQAPGKGLEWVSAIWGSGSNTYYADSVKGRFTISRDNSKNTLYLQMNSLRAEDTAVYYCARGRDLAAFTKTAFDVWGQGTLVTVSS
VL: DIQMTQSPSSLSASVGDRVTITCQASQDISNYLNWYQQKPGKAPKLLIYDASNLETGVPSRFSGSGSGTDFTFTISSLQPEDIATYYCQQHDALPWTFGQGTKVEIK
B3: N-612-004 (antibody, V domains shown)
VH: EVQLVESGGGLVQPGGSLRLSCAASGFTFSSYYMHWVRQAPGKGLEWVSAISGSGGYTYYADSVKGRFTISRDNSKNTLYLQMNSLRAEDTAVYYCARDRDHAYDWGFDVWGQGTLVTVSS
VL: DIQMTQSPSSLSASVGDRVTITCQASQDISNYLNWYQQKPGKAPKLLIYDASNLETGVPSRFSGSGSGTDFTFTISSLQPEDIATYYCQQWADWPLTFGQGTKVEIK
B4: N-612-056 (antibody, V domains shown)
VH: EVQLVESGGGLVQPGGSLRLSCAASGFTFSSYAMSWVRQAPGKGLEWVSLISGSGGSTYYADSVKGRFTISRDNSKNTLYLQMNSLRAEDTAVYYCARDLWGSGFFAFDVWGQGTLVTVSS
VL: DIQMTQSPSSLSASVGDRVTITCQASQDISNYLNWYQQKPGKAPKLLIYDASNLETGVPSRFSGSGSGTDFTFTISSLQPEDIATYYCQQDAGTPLTFGQGTKVEIK

This assay deals with SARS-CoV-2 Spike S1, wildtype (Table 13) (SARS-CoV-2, UniProt P0DTC2 16-685).
The Kd is the free concentration of one partner at which half of the binding sites on the other are occupied at equilibrium, for simple one-to-one binding. On to B1, for which the Kd worked out at 11.4 nM. Next, B2: 12 nM; B3: 0.62 nM; B4: 4.5 nM.

The values are drawn from patent EP4335870A1 (NantCell, Inc., dated 2024).
